Measured values reported in patent US20120315277A1, “Compositions and Methods for the Therapy and Diagnosis of Influenza” (priority 2011, published 2012).

Biological target: M2 protein of influenza A/Puerto Rico/8/34 (H1N1) on cells (influenza A virus A/Puerto Rico/8/34 (H1N1)) (UniProt P06821)
Assay: FACS, MDCK cells infected with A/Puerto Rico/8/34

Sequence of M2 protein of influenza A/Puerto Rico/8/34 (H1N1) on cells (influenza A virus A/Puerto Rico/8/34 (H1N1)) (P06821 whole entry): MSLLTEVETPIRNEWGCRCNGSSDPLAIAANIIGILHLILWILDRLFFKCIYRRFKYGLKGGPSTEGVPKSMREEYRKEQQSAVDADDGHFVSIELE

14C2 (chimeric mouse V-region/human IgG1 kappa 14C2 antibody)
EC50 (read off the curve): 0.3 µg/mL
